Consider 13 molecules from patent US20190022241A1 (AbbVie / Abbott, published 2019).

The target of test [1] is T1, SEZ6 N1 (amino acids 1-70) on yeast (human, UniProt Q53EL9 20-89).
T1 construct: yeast display
T1 sequence: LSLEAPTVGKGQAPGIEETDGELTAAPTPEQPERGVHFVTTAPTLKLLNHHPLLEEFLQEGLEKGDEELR
As to the kind of experiment: yeast display, flow cytometry.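 Also: antibody binding to individual SEZ6 domains displayed on yeast, measured by flow cytometry, antibody at 50 nM purified or hybridoma supernatant diluted 1:2, 90 min on ice.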 A general note: A flow cytometer gives signals particle by particle.

Test [2] deals with T2, SEZ6 Sushi Domain 4 (amino acids 750-813) on yeast (human, UniProt Q53EL9 769-832).
T2 construct: yeast display
Nature of the test: yeast display, flow cytometry.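 Also: antibody binding to individual SEZ6 domains displayed on yeast, measured by flow cytometry, antibody at 50 nM purified or hybridoma supernatant diluted 1:2, 90 min on ice.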

Residue numbers refer to the chain shown, from its start.

B1: SC17.9 (antibody, V domains shown)
VH: QVQLQQPGAEIVRPGASVKLSCKASGYTFTDYWMNWVKQRPGQGLEWIGAIDPSDSYTSYNPKFKGKATLTVDTSSSSAYMQLSSLTSEDSAVYFCARRGTPGKPLVYWGQGTLVTVSA
VL: DIVMSQSPSSLAVSVGEKVTMSCKSSQSLLYSSNQKNYLAWYQQKPGQSPKLLIYWASTRESGVPDRFTGSGSGTDFTLTISSVKAEDLAVYFCQQYYNYPYTFGGGTKLK
notes: murine mAb
Consider B1, for which the binding result in test [1] is given as “binds”.

B2: SC17.121 (antibody, V domains shown)
VH: EVQLQQSGPELMKPGASVKMSCKASGYTFTDHNIHWVKQHQGKSLEWIGEINPNTGGTGYNQKFQGKATMTVDKSSSTAYMELRSLTSEDSAVYYCVRGLYFFDYWGQGTTLTVSS
VL: QIVLTQSPAIMSASPGEKVTMTCSASSSVSYMHWYQQKSGTSPKRWIYDTSKLASGVPARFSGSGSGTSYSLTISSMETEDAATYYCQQWSNTPPTFGSVTKLEIK
notes: murine mAb
Take B2: in test [2], the binding result is recorded as “binds”.

B3: SC17.191 (antibody, V domains shown)
VH: EVQLQQSGPELMKPGASVKMSCKASGYTFTDYNMHWVKQNQGKSLEWIGEINPNTGGTGYNQKFKDKATLTVDKSSSTAYMELRSLTSEDSAVYYCARIPSLRRYYFDYWGQGTTLTVSS
VL: B2 VL with S62T, T79A, N92S, T93S, S99A, V100G, I105L
notes: murine mAb
B3: the binding result in test [2] is reported as “binds”.

B4: SC17.102 (antibody, V domains shown)
VH: EVQLQQSGPELMKPGASVKMSCKASGDTFTDYNIHWVKQNQGKSLEWIGEVNPNIGGIGYNQKFKGKATLTVDKSSSTAYMELRSLTSEDSAVYYCAMGRWYFDVWGAGTTVTVSS
VL: B2 VL with A59P, S64R, T79A, Q89H, N92S, T93N, S99A, V100G, I105M
notes: murine mAb
Regarding B4, the binding result in test [2] is reported as “binds”.

B5: SC17.56 (antibody, V domains shown)
VL: DIVMSQSPSSLAVSVGEKVTMSCKSSQSLLYSSNQKNYLAWYQQKPGQSPKLLIYWASTRESGVPDRFTGSGSGTDFTLTISSVKAEDLAVYFCQQYYNYPYTFGGGTKLEIK
V domain: QIQLVQSGPELKKPGETVKISCKASGYTFTNYGMNWVKQAPGKGLKWMAWINTYTGEPTYADDFKGRFAFSLETSASTASLQIINLKNEDTATYFCARIGDSSPSDYWGQGTTLTV
notes: murine mAb
For B5, in test [1], the binding result is listed as “binds”.

B6: SC17.81 (antibody, V domains shown)
VH: EVQLQQSGAELVKPGASVKLSCTASGFNINDTYYHWLKQRPEQGLEWIGRIDPANVNTKYDPKFQGKATLTADTSSNTAYLQLSSLTSEDTAVYYCGRGNAYWGQGTLVTVSA
VL: B5 VL with A12T, M21L, S33T, N37I, T80A, S83N, F93Y, N99S
notes: murine mAb
For B6, in test [1], the binding result is given as “binds”.

B7: SC17.93 (antibody, V domains shown)
VH: QVQLQQPGAELVKPGASVMLSCKASGYTFTSYWVHWVKQRPGQGLEWIGVINPRNGRNNYNEKFKTKATLTVDKSSSTAYMQLSSPTSEDSAVYYCAREDYDGGDYAMDYWGQGTSVTVSS
VL: B5 VL with S22T, T69I, V91I, F93Y, N99R, Y102L, G106A, I112L
notes: murine mAb
Take B7: the binding result in test [2] is recorded as “binds”.

B8: SC17.151 (antibody, V domains shown)
VH: EVQLQQSGTVLARPGASVKMSCKASGYTFTSYWMHWVKQRPGQGLEWIGAIYPGKNDTTYNQKFKGKAKLTAVTSASTLYMELSSLTNEDSAVYYCTRSGKGYFAYWGQGTLVTVSA
VL: DIVLTQFPASLAVSLGQRATIPCRASESVDSYGNSFMHWFQQKPGQPPKLLIYRASNLESEIPARFSGSGSGTDFTLTINPVEADDVATYYCQQSHEDPYTFGGGTKMEIK
notes: murine mAb
On to B8, for which, in test [1], the binding result is given as “binds”.

B9: SC17.199 (antibody, V domains shown)
VH: EVQLQQSGTVLARPGASVRMSCKASGYTFTSYWMHWVKQRPGQGLEWIGAIYPGNSDTSYNHKFKGKAKLTAVTSASTAYMELSSLTNEDSAVYYCTRSGTGWFAYWGQGTLVTVS
VL: B8 VL with F7S, P22S, F40Y, L50P, E61G, G72R, H96N, M108L
notes: murine mAb
For the molecule B9, in test [1], the binding result is listed as “binds”.

B10: SC17.120 (antibody, V domains shown)
VH: EVQLEQSGTVLARPGASVKMSCKASGYTFTSYWMHWVKQRPGQGLEWIGAFYPGNSGTYYNQKFKDKAKLTAVTSASTAYMELSSLTNEDSAVYYCSRSGSGRFAYWGQGTLVTVSA
VL: B8 VL with F7S, P22S, F40Y, L50V, E61G, G72R, A84D, D85E, H96N, M108L
notes: murine mAb
B10: in test [1], the binding result is on record as “binds”.

B11: SC17.193 (antibody, V domains shown)
VH: QVTLKESGPGILQPSQTLSLTCSFSGFSLITYGIGVGWIRQPSGKGLEWLAHIWWNDNKYYNTALKSRLTISKDTSNNQVFLKIANVDTADTATYYCARMVYYDYDGGFAYWGQGTLVTVSA
VL: DLVLTQSPASLAVSLGQRATISCRASESVSTSGYSYMHWYQQKPGQPPKLLIYLASNLESGVPARFSGSGSGTDFTLNIHPVEEEDATTYYCQHSRELPYTFGGGTKLEIK
notes: murine mAb
For B11, the binding result in test [2] is on record as “binds”.

B12: SC17.156 (antibody, V domains shown)
VH: QVTLKESGPGILQPSQTLSLTCSFSGFSLSTSGMGVSWIRKTSGKGLEWLAHIFWDDDKWYNPSLKSRLTISKATSSNQVFLILTSVDTADTATYYCATFYGLYFAYWGQGTTLTVSS
VL: DVVMTQSPLSLPVSLGDQASISCRSSQSIVHSNGNTYLEWYLQKPGQSPKLLIYKVSNRFSGVPDRFSGSGSGTDFTLKISRVEAEDLGVYYCFQGSHVPPTFGGGTKLEIK
notes: murine mAb
As to B12, the binding result in test [2] was “binds”.

B13: SC17.114 (antibody, V domains shown)
VH: EVQLQQSGPEMVKPGASVKISCKASGYTFTDYYMHWVKQSHGKSLEWIGRVNTNNGGTSYDQKFEGKATLTVDKSSSTAYMELNSLTSEDSAVYYCVIPAWFAYWGQGTLVTVSA
VL: B12 VL with I29L, E39H, N58S, Y92F, F94S, G96S, S97T, P101F, G105S
notes: murine mAb
In the case of B13, the binding result in test [1] was “binds”.
